Assay [1] concerns tumors. In words: In vivo anti-tumor activity of TIGIT-Fc-OX40L chimeric protein and anti-CTLA-4 antibody in tumor-inoculated mice. As for the experimental part: The in vivo ability of combinations of the TIGIT-Fc-OX40L chimeric protein with anti-CTLA-4 antibodies (FIG. 3A to FIG. 3C) to target and treat tumors were determined.
Mice were inoculated with tumors and were treated with a vehicle, an antibody, the TIGIT-Fc-OX40L chimeric protein, or combinations of the TIGIT-Fc-OX40L chimeric protein and an anti-CTLA-4 antibody; in the combinations, the TIGIT-Fc-OX40L chimeric protein was administered before the antibody, the TIGIT-Fc-OX40L chimeric protein was administered after the antibody, or the TIGIT-Fc-OX40L chimeric protein was administered with the antibody. See, FIG. 3A for the dose schedules.
FIG. 3C includes data relevant to the graphs of FIG. 3A and FIG. 3B.

Assay [2] has as its system tumor infiltrating lymphocytes (TIL) of CT26 (colorectal carcinoma) tumors. Description: Immune phenotyping of tumor infiltrating lymphocytes (TIL) by flow cytometry. The settings on record: IP days 0, 3, 6; 300 mg ARC, 100 mg anti-PD-1; tumor collected day 7. In kind it is in vivo, BALB/C mice. The text has this:
FIG. 6A to FIG. 6G show the results of immune phenotyping of the tumor infiltrating lymphocytes (TIL) in BALB/C mice harboring CT26 (colorectal carcinoma) tumor allografts treated with ARC (TIGIT-Fc-OX40L or TIGIT-Fc-LIGHT) alone or the combination with anti-PD-1 (clone RMP1-14) antibody. The fractions (expressed as percentages) of total CD8^+ cells (FIG. 6A), total Perforin CD8^+ cells (FIG. 6B), total IFNγ^+ CD8^+ cells (FIG. 6C), total AH1-tetramer CD8^+ cells (antigen-specific CD8^+ cells) (FIG. 6D), total CD4±cells (FIG. 6E), total NKP46^+ NK cells (FIG. 6F) and total IFNγ±(NKP46^+ NK) cells (FIG. 6G) in the indicated cell populations in the dissociated tumor tissue as determined by flow cytometry analyses.
BALB/C mice were inoculated with CT26 (colorectal carcinoma) tumors, and when starting tumor volumes reached 30-60 mm^3 (indicating day 0), treatment was begun. Mice were treated via intraperitoneal (IP) injection on days 0, 3, and 6 with […] of either ARC (TIGIT-Fc-OX40L or TIGIT-Fc-LIGHT) or the combination of each ARC with […] of anti-PD-1 (clone RMP1-14). On day 7, mice were euthanized, tumor tissue was collected and dissociated, and analyzed by flow cytometry and calculated as percent cell types. The total % of CD8+ T cells detected in the tumor are similar between treatment groups (FIG. 6A).
The immunodominant CD8+ T cell response against CT26 carcinoma cells is directed against a tumor/self-antigen, GP70423-431, also known as AH1. To evaluate the T cell response against CT26, total AH1-tetramer CD8^+ cells were quantitated.
Other relevant cell types, including total % of CD4+ T cells, NKP46^+ NK cells, including the total IFNγ±NKP46^+ NK cells in the tumors were also quantitated. […] The IFNγ±cells were quantitated among NKP46^+ NK cells.
(In flow cytometry, cells or beads pass a laser one at a time.)

The subject of assay [3] is tumors. Description: In vivo anti-tumor activity of TIGIT-Fc-OX40L chimeric protein and anti-PD-1 antibody in tumor-inoculated mice. As for the experimental part:
The in vivo ability of combinations of the TIGIT-Fc-OX40L chimeric protein with anti-PD-1 antibodies (FIG. 4A to FIG. 4D) to target and treat tumors were determined.
Mice were inoculated with tumors and were treated with a vehicle, an antibody, the TIGIT-Fc-OX40L chimeric protein, or combinations of the TIGIT-Fc-OX40L chimeric protein and an anti-PD-1 antibody; in the combinations, the TIGIT-Fc-OX40L chimeric protein was administered before the antibody, the TIGIT-Fc-OX40L chimeric protein was administered after the antibody, or the TIGIT-Fc-OX40L chimeric protein was administered with the antibody.
FIG. 4C and FIG. 4D include data relevant to the graphs of FIG. 4A and FIG. 4B.

Assay [4] relates to CT26 tumor. Description: In vivo anti-tumor activity of TIGIT-Fc-LIGHT chimeric protein and anti-PD1 antibody in mice challenged with CT26 tumor. Also on record: species or system mouse. The settings on record: monotherapy on days 1, 3, and 6, compared to vehicle only-treated mice. The text has this: FIG. 5B is a Kaplan Meyer plot of survival and statistics of the CT26 tumor experiment of FIG. 5A. […] FIG. 5C and FIG. 5D includes data relevant to the graphs of FIG. 5A and FIG. 5B.

The mark [5] stands for this setting: administered on days 7, 9, and 11, compared to vehicle only-treated mice and to days 12, 14, 16 schedule.
Setting [6] is: administered on days 12, 14, and 16, compared to vehicle only-treated mice.
The mark [7] stands for this setting: compared to the dosing regimen-matched αCTLA antibody-treated mice.
[8] abbreviates: compared to the dosing regimen-matched αPD-1 antibody-treated mice.

B1: TIGIT-Fc-OX40L: chimeric protein: extracellular domain of TIGIT, hinge-CH2-CH3 Fc linker, extracellular domain of OX40L (SEQ ID NO: 60) (protein)
chain: MMTGTIETTGNISAEKGGSIILQCHLSSTTAQVTQVNWEQQDQLLAICNADLGWHISPSFKDRVAPGPGLGLTLQSLTVNDTGEYFCIYHTYPDGTYTGRIFLEVLESSVAEHGARFQIPSKYGPPCPPCPAPEFLGGPSVFLFPPKPKDQLMISRTPEVTCVVVDVSQEDPEVQFNWYVDGVEVHNAKTKPREEQFNSTYRVVSVLTVLHQDWLSGKEYKCKVSSKGLPSSIEKTISNATGQPREPQVYTLPPSQEEMTKNQVSLTCLVKGFYPSDIAVEWESNGQPENNYKTTPPVLDSDGSFFLYSRLTVDKSRWQEGNVFSCSVLHEALHNHYTQKSLSLSLGKIEGRMDQVSHRYPRIQSIKVQFTEYKKEKGFILTSQKEDEIMKVQNNSVIINCDGFYLISLKGYFSQEVNISLHYQKDEEPLFQLKKVRSVNSLMVASLTYKDKVYLNVTTDNTSLDDFHVNGGELILIHQNPGEFCVL
Turning to B1, in assay [1] (setting [5]), the survival entry is “extended survival” and the tumor development result is on record as “slower tumor development”. In assay [1] (setting [6]), the survival result is recorded as “extended survival” and the tumor development entry was “slower tumor development”. In addition, in assay [1] (setting [7]), the survival result is on record as “extended survival” and the tumor development entry is “slower tumor development”. In addition, in assay [2], the “total AH1-tetramer CD8+ cells among the total CD8+ cells” value is recorded as “increased”, the “total CD4+ cells among the total mononuclear cells” value is on record as “increased”, the “total IFNγ+ CD8+ cells among the total CD8+ cells” value is listed as “increased” and the “total IFNγ+ cells among the total NKP46+ NK cells” value is reported as “increased”. In assay [2], the “total NKP46+ NK cells among the total mononuclear cells” value is on record as “increased” and the “total Perforin CD8+ cells among the total CD8+ cells” value is on record as “increased”. For the same molecule, in assay [3] (setting [5]), the survival entry is “extended survival” and the tumor development result was “slower tumor development”. Also, in assay [3] (setting [6]), the survival entry is on record as “extended survival” and the tumor development result was “slower tumor development”. Also, in assay [3] (setting [8]), the survival result was “extended survival” and the tumor development entry is on record as “slower tumor development”.

B2: TIGIT-Fc-LIGHT: chimeric protein: extracellular domain of TIGIT, hinge-CH2-CH3 Fc linker, extracellular domain of LIGHT (SEQ ID NO: 61) (protein)
chain: MEWSWVFLFFLSVTTGVHSMMTGTIETTGNISAEKGGSIILQCHLSSTTAQVTQVNWEQQDQLLAICNADLGWHISPSFKDRVAPGPGLGLTLQSLTVNDTGEYFCIYHTYPDGTYTGRIFLEVLESSVAEHGARFQIPSKYGPPCPPCPAPEFLGGPSVFLFPPKPKDQLMISRTPEVTCVVVDVSQEDPEVQFNWYVDGVEVHNAKTKPREEQFNSTYRVVSVLTVLHQDWLSGKEYKCKVSSKGLPSSIEKTISNATGQPREPQVYTLPPSQEEMTKNQVSLTCLVKGFYPSDIAVEWESNGQPENNYKTTPPVLDSDGSFFLYSRLTVDKSRWQEGNVFSCSVLHEALHNHYTQKSLSLSLGKIEGRMDLQLHWRLGEMVTRLPDGPAGSWEQLIQERRSHEVNPAAHLTGANSSLTGSGGPLLWETQLGLAFLRGLSYHDGALVVTKAGYYYIYSKVQLGGVGCPLGLASTITHGLYKRTPRYPEELELLVSQQSPCGRATSSSRVWWDSSFLGGVVHLEAGEKVVVRVLDERLVRLRDGTRSYFGAFMV
B2: in assay [2], the “total AH1-tetramer CD8+ cells among the total CD8+ cells” value is on record as “increased”, the “total CD4+ cells among the total mononuclear cells” value is given as “increased”, the “total IFNγ+ CD8+ cells among the total CD8+ cells” value is “increased” and the “total IFNγ+ cells among the total NKP46+ NK cells” value is recorded as “increased”. Besides, in assay [2], the “total NKP46+ NK cells among the total mononuclear cells” value is on record as “increased” and the “total Perforin CD8+ cells among the total CD8+ cells” value is given as “increased”. For the same molecule, in assay [4], the survival entry was “extended survival” and the tumor development entry is recorded as “slower tumor development”.

Source of the values: patent publication US20220185863A1, “COMBINATION THERAPIES” (Shattuck Labs, Inc., priority 2019, published 2022).
